Columns and labels:
Fc protein (control) = assay: native gel or EMSA; Blue Native PAGE of the purified recombinant proteins in aqueous solution
mouse podoplanin (PDPN) = target: T1, mouse podoplanin (PDPN) (mouse (endogenous in primary cultured …, UniProt Q62011 23-172)); assay: cell-based or functional assay
T1 sequence (looked up): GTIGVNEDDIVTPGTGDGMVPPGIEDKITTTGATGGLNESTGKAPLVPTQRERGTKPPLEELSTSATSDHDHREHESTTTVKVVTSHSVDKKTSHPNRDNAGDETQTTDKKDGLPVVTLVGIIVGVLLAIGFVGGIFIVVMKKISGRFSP

Molecule: Fc protein (control) (domain or fragment)
- stoichiometry N (Fc protein (control)): 4

B1: StepTagII-3FLAG-CLEC-2, a fusion of StrepTactin FLAG double tags and the C-terminal extracellular domain of mouse CLEC-2 (51-229) (domain or fragment, UniProt Q9JL99 51-229, looked up)
chain: GIMSVTQQKYLLAEKENLSATLQQLAKKFCQELIRQSEIKTKSTFEHKCSPCATKWRYHGDSCYGFFRRNLTWEESKQYCTEQNATLVKTASQSTLDYIAERITSVRWIGLSRQNSKKDWMWEDSSVLRKNGINLSGNTEENMNCAYLHNGKIHPASCKERHYLICERNAGMTRVDQLL
- pERM/ERM ratio by Western blot of glomerular lysate after infusion of FLAG-CLEC-2 (5 ug/g body weight), against controls (mouse podoplanin (PDPN)): 0.65 fold
